Publication PMC3607249

Biological target: Sulfolobus islandicus Orc1-1 Walker B mutant E147A (ATP-bound) (Sulfolobus islandicus)
Experiment: AUC

Sulfolobus islandicus Orc1-1 Walker B mutant E147A (ATP-bound) (natural protein)
stoichiometry N: 2
